Here are results for three molecules from paper PMC5849602.

The star is where a group is joined. AFC = O=c1cc(C(F)(F)F)c2ccc(N*)cc2o1

Test [1] has as its target T1, Casp6-WT lacking its pro-domain (∆Casp6-WT) (human) (UniProt P55212).
T1 sequence: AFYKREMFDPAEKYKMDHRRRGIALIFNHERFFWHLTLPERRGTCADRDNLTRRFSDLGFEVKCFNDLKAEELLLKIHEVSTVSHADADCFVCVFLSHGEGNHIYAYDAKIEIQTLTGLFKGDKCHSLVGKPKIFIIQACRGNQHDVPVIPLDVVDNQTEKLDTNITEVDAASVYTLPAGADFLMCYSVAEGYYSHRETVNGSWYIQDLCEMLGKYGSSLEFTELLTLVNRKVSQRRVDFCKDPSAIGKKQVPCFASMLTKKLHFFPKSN

Substrate in test [2]: ΔN D179 CT version of Casp6-WT (human) (UniProt P55212)
Nature of the test: thermal shift assay (SYPRO Orange); 10 μM Casp6 with or without 50 μM Ac-VEID-CHO, 20 mM Tris pH 8.5, 5 mM DTT, 5x SYPRO Orange, 25 to 95 °C; ΔTm = Tm with minus Tm without Ac-VEID-CHO.

Test [3] addresses co-expressed Casp6-R65W large and small subunits (human). The test is described as above.
The target of test [4] is T2, recombinant Casp6-R65W (from full-length Casp6-His) (human) (UniProt P55212).
T2 sequence: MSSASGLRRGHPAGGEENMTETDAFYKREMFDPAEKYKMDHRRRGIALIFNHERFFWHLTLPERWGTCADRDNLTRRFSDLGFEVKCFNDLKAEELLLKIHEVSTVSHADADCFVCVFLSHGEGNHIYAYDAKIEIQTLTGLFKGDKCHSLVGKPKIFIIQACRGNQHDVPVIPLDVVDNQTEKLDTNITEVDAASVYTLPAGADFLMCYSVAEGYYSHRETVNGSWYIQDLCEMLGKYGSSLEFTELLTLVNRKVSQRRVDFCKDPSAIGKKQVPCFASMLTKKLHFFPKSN

Test [5] has as its target T3, recombinant Casp6-WT (from full-length human Casp6-WT-6xHis-tag-C-terminus) (human) (UniProt P55212).
T3 sequence: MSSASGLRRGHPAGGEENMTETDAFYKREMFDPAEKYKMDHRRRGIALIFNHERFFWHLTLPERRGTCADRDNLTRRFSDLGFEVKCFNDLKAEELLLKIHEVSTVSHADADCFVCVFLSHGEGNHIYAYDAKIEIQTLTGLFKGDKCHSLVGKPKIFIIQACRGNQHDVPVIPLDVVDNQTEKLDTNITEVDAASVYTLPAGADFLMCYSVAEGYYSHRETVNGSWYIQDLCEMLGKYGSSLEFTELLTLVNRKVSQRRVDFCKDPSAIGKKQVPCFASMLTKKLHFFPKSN

B1: recombinant proCasp6-G66R (from full-length Casp6-His) (enzyme)
chain: MSSASGLRRGHPAGGEENMTETDAFYKREMFDPAEKYKMDHRRRGIALIFNHERFFWHLTLPERRRTCADRDNLTRRFSDLGFEVKCFNDLKAEELLLKIHEVSTVSHADADCFVCVFLSHGEGNHIYAYDAKIEIQTLTGLFKGDKCHSLVGKPKIFIIQACRGNQHDVPVIPLDVVDNQTEKLDTNITEVDAASVYTLPAGADFLMCYSVAEGYYSHRETVNGSWYIQDLCEMLGKYGSSLEFTELLTLVNRKVSQRRVDFCKDPSAIGKKQVPCFASMLTKKLHFFPKSN
Turning to B1, in test [1], the reduction of the VEIDase activity (40 µM Ac-VEID-AFC) of Casp3-processed ∆Casp6-WT (0.02 mg/ml) on addition of proCasp6-G66R (0.02-0.06 mg/ml, ratios 1:1 to 3:1), not dose-dependent worked out at 30%.

B2: Ac-VEID-CHO (peptide)
peptide: Ac-VEID-aldehyde
Turning to B2, the figures for the increase of melting temperature with Ac-VEID-CHO (ΔTm) in test [2] and in test [3] were 7 °C and 4.6 °C, respectively.

B3: Ac-Val-Glu-Ile-Asp-7-Amino-4-trifluoromethylcoumarin (peptide)
peptide: Ac-VEID-{AFC}
SMILES: CC[C@H](C)[C@H](NC(=O)[C@H](CCC(=O)O)NC(=O)[C@@H](NC(C)=O)C(C)C)C(=O)N[C@@H](CC(=O)O)C(=O)Nc1ccc2c(C(F)(F)F)cc(=O)oc2c1
As for B3, the KM of Ac-VEID-AFC cleavage (Michaelis-Menten fit; 20 nM Casp6, 1-300 µM Ac-VEID-AFC) in test [4] came to 102 µM; in test [5], 39.1 µM.
